Reference: the supplement of paper PMC10065799, “High-throughput profiling of sequence recognition by tyrosine kinases and SH2 domains using bacterial peptide display” (eLife, 2023)

Columns and labels:
AncSZ = experiment: phosphorylation enrichment, bacterial display (enrichment ratio); higher = better substrate or ligand; peptides without Tyr show the background
EPHB1 = EPHB1 (UniProt P54762); experiment: as above
EPHB2 = EPHB2 (UniProt P29323); experiment: as above
FGFR1 = FGFR1 (UniProt P11362); experiment: as above
FGFR3 = FGFR3 (UniProt P22607); experiment: as above
Fer (mouse) = experiment: as above
Fes = Fes (UniProt P07332); experiment: as above
Fyn = Fyn (UniProt P06241); experiment: as above
Hck = Hck (UniProt P08631); experiment: as above
Jak2 = Jak2 (UniProt O60674); experiment: as above
MERTK = MERTK (UniProt Q12866); experiment: as above
c-Abl (mouse) = experiment: as above
c-Src = experiment: as above
Grb2 SH2 = Grb2 SH2 (UniProt P62993); experiment: SH2 binding enrichment of the phosphorylated peptide, bacterial display (enrichment ratio); higher = better substrate or ligand; peptides without Tyr show the background
SHP2-C SH2 = experiment: as above
c-Src SH2 = experiment: as above
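Wherever SH2 binding enrichment of the phosphorylated peptide, bacterial display is given: peptide library displayed on the E. coli surface as eCPX fusions, selected cells deep-sequenced, score is each peptide's frequency after selection divided by its frequency in the input.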
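Wherever phosphorylation enrichment, bacterial display is given: 11-residue human phosphosite peptides and single-mutation variants displayed on the E. coli surface, counted by deep sequencing, each peptide's frequency after selection divided by its frequency in the unselected input library; frequency after pTyr selection over input frequency; kinase dosed for 20-30% of maximal phosphorylation in three min.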

EPHB1, sequence (P54762 whole entry, looked up): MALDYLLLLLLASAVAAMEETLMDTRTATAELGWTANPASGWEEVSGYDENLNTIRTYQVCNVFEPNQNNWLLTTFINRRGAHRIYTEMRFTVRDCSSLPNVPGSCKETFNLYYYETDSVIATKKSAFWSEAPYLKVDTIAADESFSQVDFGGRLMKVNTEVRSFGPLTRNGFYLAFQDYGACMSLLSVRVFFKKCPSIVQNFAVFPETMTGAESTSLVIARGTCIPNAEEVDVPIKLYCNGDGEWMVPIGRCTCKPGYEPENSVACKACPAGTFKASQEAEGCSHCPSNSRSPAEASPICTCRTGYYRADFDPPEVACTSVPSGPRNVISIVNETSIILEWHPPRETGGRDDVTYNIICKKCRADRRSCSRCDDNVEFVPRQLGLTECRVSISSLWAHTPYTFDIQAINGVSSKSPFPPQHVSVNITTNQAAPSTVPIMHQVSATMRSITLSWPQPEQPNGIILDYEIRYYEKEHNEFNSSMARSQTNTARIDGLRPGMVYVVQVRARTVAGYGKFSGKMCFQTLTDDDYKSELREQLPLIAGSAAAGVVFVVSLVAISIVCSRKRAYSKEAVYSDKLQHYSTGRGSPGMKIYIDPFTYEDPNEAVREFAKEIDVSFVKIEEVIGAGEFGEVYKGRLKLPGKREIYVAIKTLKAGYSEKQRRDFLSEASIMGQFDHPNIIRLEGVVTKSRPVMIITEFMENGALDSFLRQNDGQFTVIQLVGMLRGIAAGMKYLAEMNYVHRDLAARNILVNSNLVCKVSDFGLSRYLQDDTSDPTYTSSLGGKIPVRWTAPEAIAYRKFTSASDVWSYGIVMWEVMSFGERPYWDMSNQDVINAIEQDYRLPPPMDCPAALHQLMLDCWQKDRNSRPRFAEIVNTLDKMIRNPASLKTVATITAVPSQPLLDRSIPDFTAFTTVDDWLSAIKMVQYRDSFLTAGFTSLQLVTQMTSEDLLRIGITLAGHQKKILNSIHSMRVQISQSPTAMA
Fyn, sequence (P06241 whole entry, looked up): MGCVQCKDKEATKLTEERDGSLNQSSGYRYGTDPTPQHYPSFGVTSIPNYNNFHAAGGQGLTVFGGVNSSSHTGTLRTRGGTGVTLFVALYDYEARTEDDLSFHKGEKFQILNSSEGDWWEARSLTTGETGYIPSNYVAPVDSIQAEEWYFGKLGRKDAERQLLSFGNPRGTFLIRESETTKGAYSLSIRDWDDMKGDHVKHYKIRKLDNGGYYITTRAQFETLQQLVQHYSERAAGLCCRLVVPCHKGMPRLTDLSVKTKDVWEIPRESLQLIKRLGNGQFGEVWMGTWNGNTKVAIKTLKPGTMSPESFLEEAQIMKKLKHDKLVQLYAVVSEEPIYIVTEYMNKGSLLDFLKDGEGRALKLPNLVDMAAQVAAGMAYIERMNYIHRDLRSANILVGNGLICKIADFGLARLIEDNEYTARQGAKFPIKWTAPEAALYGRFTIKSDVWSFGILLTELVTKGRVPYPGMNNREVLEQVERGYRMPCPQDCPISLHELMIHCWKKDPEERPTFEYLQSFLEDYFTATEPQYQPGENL
Jak2, sequence (O60674 whole entry, looked up): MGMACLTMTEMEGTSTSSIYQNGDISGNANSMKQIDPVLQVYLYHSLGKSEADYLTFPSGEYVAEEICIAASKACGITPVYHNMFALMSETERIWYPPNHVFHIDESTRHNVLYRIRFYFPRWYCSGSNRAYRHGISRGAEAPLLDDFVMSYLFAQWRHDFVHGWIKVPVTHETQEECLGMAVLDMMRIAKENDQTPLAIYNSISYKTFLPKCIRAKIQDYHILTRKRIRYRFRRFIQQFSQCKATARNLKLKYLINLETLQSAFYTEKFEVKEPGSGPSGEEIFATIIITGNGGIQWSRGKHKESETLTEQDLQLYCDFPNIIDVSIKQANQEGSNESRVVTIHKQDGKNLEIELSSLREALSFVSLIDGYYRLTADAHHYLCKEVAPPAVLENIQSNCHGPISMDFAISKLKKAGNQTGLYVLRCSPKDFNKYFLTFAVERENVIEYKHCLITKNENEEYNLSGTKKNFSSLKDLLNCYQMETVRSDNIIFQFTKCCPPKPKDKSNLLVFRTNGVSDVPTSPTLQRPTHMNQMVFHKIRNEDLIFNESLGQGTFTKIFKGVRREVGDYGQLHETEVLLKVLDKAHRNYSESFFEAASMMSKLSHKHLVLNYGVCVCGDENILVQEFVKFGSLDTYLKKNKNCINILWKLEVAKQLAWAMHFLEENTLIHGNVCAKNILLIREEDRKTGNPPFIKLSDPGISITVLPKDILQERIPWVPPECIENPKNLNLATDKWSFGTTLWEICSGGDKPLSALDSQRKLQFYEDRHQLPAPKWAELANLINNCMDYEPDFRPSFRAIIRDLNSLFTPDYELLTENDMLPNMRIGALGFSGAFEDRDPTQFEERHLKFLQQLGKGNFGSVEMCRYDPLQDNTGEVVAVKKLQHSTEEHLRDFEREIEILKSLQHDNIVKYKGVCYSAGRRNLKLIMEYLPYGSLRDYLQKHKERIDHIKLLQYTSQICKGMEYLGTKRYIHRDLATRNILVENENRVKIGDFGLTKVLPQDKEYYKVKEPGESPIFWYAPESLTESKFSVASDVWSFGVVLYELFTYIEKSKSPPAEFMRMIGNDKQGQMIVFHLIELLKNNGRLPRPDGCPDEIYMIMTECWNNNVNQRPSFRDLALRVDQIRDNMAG
FGFR1, sequence (P11362 whole entry, looked up): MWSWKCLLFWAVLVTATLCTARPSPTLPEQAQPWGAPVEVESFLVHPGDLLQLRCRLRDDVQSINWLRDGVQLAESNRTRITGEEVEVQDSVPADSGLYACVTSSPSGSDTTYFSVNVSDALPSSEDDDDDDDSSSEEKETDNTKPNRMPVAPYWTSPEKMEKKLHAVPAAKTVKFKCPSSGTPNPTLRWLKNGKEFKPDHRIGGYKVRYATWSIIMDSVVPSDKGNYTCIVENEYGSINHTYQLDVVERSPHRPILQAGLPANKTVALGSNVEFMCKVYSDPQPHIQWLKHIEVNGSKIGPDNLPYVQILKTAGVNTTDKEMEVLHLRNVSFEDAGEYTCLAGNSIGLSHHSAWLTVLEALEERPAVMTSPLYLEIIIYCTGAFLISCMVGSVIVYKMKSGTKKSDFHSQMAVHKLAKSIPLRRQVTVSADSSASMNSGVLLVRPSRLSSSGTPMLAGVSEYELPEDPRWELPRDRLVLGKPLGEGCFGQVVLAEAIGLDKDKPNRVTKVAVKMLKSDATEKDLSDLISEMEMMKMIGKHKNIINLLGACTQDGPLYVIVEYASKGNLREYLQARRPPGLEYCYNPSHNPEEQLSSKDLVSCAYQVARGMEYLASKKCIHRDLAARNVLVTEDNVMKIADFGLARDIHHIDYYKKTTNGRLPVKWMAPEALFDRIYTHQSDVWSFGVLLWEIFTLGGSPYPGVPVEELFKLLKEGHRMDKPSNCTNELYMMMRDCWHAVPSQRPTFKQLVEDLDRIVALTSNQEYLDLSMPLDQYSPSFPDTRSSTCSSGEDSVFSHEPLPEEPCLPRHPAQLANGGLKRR
MERTK, sequence (Q12866 whole entry, looked up): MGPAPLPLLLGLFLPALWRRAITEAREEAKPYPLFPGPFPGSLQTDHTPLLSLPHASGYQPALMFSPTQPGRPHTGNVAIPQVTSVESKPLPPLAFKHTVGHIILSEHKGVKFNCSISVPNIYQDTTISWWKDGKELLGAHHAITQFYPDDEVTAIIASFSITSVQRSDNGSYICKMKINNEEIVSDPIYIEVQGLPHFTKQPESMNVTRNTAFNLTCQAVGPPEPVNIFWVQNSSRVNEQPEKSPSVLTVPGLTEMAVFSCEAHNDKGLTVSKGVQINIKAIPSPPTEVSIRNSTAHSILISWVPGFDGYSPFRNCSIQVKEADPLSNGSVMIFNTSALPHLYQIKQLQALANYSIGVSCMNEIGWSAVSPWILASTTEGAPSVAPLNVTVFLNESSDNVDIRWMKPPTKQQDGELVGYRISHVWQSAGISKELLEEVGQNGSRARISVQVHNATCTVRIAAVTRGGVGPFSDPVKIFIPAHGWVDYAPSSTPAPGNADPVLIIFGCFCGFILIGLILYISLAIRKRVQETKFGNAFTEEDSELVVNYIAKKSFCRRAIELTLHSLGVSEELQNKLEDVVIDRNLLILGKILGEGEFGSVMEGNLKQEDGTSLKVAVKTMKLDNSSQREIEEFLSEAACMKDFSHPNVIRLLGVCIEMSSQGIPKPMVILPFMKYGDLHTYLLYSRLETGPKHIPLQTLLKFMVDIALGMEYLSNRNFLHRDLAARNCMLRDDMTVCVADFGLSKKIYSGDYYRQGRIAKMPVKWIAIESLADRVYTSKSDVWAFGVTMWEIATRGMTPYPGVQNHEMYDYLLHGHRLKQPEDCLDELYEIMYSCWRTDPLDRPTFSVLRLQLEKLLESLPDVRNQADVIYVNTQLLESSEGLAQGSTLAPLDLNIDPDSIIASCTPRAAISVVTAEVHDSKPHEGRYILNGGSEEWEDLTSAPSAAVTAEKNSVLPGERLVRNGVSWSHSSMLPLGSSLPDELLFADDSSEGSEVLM
Hck, sequence (P08631 whole entry, looked up): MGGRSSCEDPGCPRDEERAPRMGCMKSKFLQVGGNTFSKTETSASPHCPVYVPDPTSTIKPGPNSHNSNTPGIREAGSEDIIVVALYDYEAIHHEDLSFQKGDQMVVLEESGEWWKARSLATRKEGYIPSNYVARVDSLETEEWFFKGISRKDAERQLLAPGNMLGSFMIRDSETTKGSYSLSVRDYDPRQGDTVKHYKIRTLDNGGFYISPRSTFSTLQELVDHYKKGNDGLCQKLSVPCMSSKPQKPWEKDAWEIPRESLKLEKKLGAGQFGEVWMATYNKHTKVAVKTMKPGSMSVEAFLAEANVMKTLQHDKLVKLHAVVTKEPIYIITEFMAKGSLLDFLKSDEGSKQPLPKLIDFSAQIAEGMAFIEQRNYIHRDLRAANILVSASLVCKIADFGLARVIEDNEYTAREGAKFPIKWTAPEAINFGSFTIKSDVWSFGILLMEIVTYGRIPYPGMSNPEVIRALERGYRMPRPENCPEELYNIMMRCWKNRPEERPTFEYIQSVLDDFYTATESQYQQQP

| Sequence | phosphorylation enrichment (AncSZ) | phosphorylation enrichment (EPHB1) | phosphorylation enrichment (EPHB2) | phosphorylation enrichment (FGFR1) | phosphorylation enrichment (FGFR3) | phosphorylation enrichment (Fer (mouse)) | phosphorylation enrichment (Fes) | phosphorylation enrichment (Fyn) | phosphorylation enrichment (Hck) | phosphorylation enrichment (Jak2) | phosphorylation enrichment (MERTK) | phosphorylation enrichment (c-Abl (mouse)) | phosphorylation enrichment (c-Src) | SH2 binding enrichment (Grb2 SH2) | SH2 binding enrichment (SHP2-C SH2) | SH2 binding enrichment (c-Src SH2) |
| --- | --- | --- | --- | --- | --- | --- | --- | --- | --- | --- | --- | --- | --- | --- | --- | --- |
| MAQDIYRASYY [ALK_Y1278_R1275Q] | 0.662 | 0.576 | 0.53 | 0.786 | 0.653 | 0.451 | 0.765 | 1.62 | 2.54 | 0.61 | 0.791 | 7.45 | 3.15 | 0.882 | 0.73 | 0.755 |
| MASISYDYCRV [BST2_Y6_T4I] | 1.58 | 4.17 | 3.29 | 1.32 | 1.1 | 2.33 | 0.908 | 0.565 | 1.02 | 1.09 | 0.75 | 0.708 | 0.589 | 1.1 | 0.77 | 1.22 |
| MDDPRYGVCPL [ZNF100_Y6_M8V] | 1.15 | 0.673 | 0.632 | 0.491 | 0.75 | 0.56 | 1.27 | 0.609 | 0.715 | 1.46 | 0.579 | 0.918 | 0.527 | 0.767 | 0.616 | 0.613 |
| MEFLPYGSLRD [JAK2_Y934_YF] | 0.857 | 0.571 | 0.451 | 0.441 | 0.615 | 0.832 | 1.56 | 1.64 | 2.29 | 0.798 | 0.388 | 0.692 | 2.6 | 0.798 | 0.574 | 0.573 |
| MEIHAYRKLLE [LMNA_Y376] | 0.804 | 0.479 | 0.67 | 0.443 | 0.57 | 0.527 | 0.97 | 0.429 | 0.414 | 0.814 | 0.383 | 0.672 | 0.397 | 0.869 | 0.572 | 0.471 |
| MEKEKYVSFIS [JMJD1C_Y596_YF] | 0.833 | 0.416 | 0.417 | 0.434 | 0.55 | 0.35 | 0.832 | 0.348 | 0.497 | 0.518 | 0.454 | 0.541 | 0.486 | 0.711 | 0.831 | 0.785 |
| MEKEKYVSYIS [JMJD1C_Y596] | 0.795 | 0.571 | 0.509 | 0.401 | 0.672 | 0.397 | 1.11 | 0.471 | 0.442 | 0.921 | 0.413 | 0.629 | 0.5 | 0.612 | 0.815 | 0.432 |
| MGRVNYGAFIN [GLB1_Y485_YF] | 0.567 | 0.399 | 0.498 | 0.398 | 0.496 | 0.382 | 0.707 | 0.408 | 0.422 | 0.616 | 0.426 | 0.472 | 0.562 | 0.903 | 0.969 | 0.585 |
| MHLRQYKLLGG [GNAS_Y391_E392K] | 0.51 | 0.534 | 0.44 | 0.478 | 0.535 | 0.399 | 0.764 | 0.443 | 0.522 | 0.548 | 0.412 | 0.478 | 0.419 | 0.715 | 0.453 | 0.483 |
| MKALGYFAVVK [OPA1_Y498_T503K] | 1.05 | 0.507 | 0.569 | 0.51 | 0.692 | 0.596 | 1.25 | 0.464 | 0.48 | 1 | 0.439 | 0.767 | 0.397 | 0.792 | 0.913 | 0.595 |
| MKDLTYASLCF [ALOX5_Y446] | 1.09 | 2.65 | 2.07 | 0.901 | 0.946 | 1.71 | 1.33 | 6.75 | 5.35 | 1.01 | 3.15 | 1.78 | 5.59 | 0.912 | 0.737 | 0.411 |
| MMVGAYSTLEG [ECPAS_Y470] | 0.765 | 0.735 | 0.545 | 0.538 | 0.676 | 0.743 | 0.839 | 0.607 | 1.07 | 0.557 | 3.09 | 0.57 | 0.704 | 0.777 | 1.44 | 11.7 |
| MSLPGYKLVTG [GJA1_Y286_P283L] | 0.536 | 0.374 | 0.393 | 0.495 | 0.456 | 0.518 | 0.585 | 0.378 | 0.345 | 0.497 | 0.364 | 0.348 | 0.353 | 0.766 | 0.682 | 0.489 |
| MSNSAYVKREV [SCN1A_Y1694_F1692S] | 0.563 | 0.407 | 0.415 | 0.45 | 0.46 | 0.37 | 0.562 | 0.402 | 0.399 | 0.437 | 0.381 | 0.442 | 0.335 | 0.838 | 0.753 | 0.454 |
| MSSAGYRAAEG [COL6A3_Y543_T538M] | 0.468 | 0.389 | 0.334 | 0.425 | 0.444 | 0.379 | 0.495 | 0.387 | 0.375 | 0.529 | 0.372 | 0.497 | 0.404 | 0.788 | 0.609 | 0.396 |
| MSSLYYANALF [HOXB7_Y6_T9A] | 1.04 | 7.33 | 8.29 | 5.32 | 4.83 | 5.14 | 1.04 | 4.93 | 6.04 | 2.94 | 10.7 | 3.44 | 4.88 | 4.61 | 1.36 | 2.08 |
| MTFMFYRENLR [NLRP14_Y443_V441M_YF] | 1.45 | 0.691 | 0.724 | 0.545 | 0.784 | 0.705 | 1.28 | 0.537 | 0.518 | 1.32 | 0.526 | 0.879 | 0.445 | 0.909 | 1.22 | 0.567 |

| Sequence | phosphorylation enrichment (AncSZ) | phosphorylation enrichment (EPHB1) | phosphorylation enrichment (EPHB2) | phosphorylation enrichment (FGFR1) | phosphorylation enrichment (FGFR3) | phosphorylation enrichment (Fer (mouse)) | phosphorylation enrichment (Fes) | phosphorylation enrichment (Fyn) | phosphorylation enrichment (Hck) | phosphorylation enrichment (Jak2) | phosphorylation enrichment (MERTK) | phosphorylation enrichment (c-Abl (mouse)) | phosphorylation enrichment (c-Src) | SH2 binding enrichment (Grb2 SH2) | SH2 binding enrichment (SHP2-C SH2) | SH2 binding enrichment (c-Src SH2) |
| --- | --- | --- | --- | --- | --- | --- | --- | --- | --- | --- | --- | --- | --- | --- | --- | --- |
| MVSLFYGTAIF [OR10C1_Y251_L255I] | 1.41 | 0.619 | 0.666 | 0.477 | 0.819 | 0.937 | 1.53 | 1.1 | 0.995 | 1.4 | 0.63 | 1.22 | 1.92 | 0.653 | 0.756 | 0.46 |
| NDENIYKGLPD [VAV3_Y141_D139N] | 1.34 | 0.564 | 0.644 | 0.529 | 0.799 | 0.579 | 1.2 | 1.23 | 1.4 | 1.14 | 0.542 | 1.08 | 1.78 | 1.1 | 0.645 | 0.494 |
| NDFGNYNQQPS [HNRNPA2B1_Y306] | 0.764 | 0.691 | 0.604 | 0.589 | 0.493 | 0.472 | 0.85 | 0.596 | 0.504 | 0.788 | 0.478 | 0.74 | 0.505 | 0.915 | 0.66 | 0.382 |
| NEKNIYRVPLM [BMPR2_Y247] | 0.622 | 0.377 | 0.357 | 0.446 | 0.501 | 0.439 | 0.708 | 1.96 | 1.16 | 0.671 | 0.609 | 31.2 | 0.877 | 0.864 | 0.755 | 0.508 |
| NFFDLYGGEKF [PTPN11_Y66_D61N_YF] | 0.91 | 0.518 | 0.634 | 0.419 | 0.61 | 0.553 | 1.02 | 1.79 | 3.54 | 0.826 | 0.437 | 0.581 | 2.73 | 1.02 | 0.827 | 0.641 |
| NIKKEYTKMVQ [PMS2_Y181_A182T] | 0.494 | 0.394 | 0.333 | 0.808 | 0.439 | 0.27 | 0.492 | 0.378 | 0.385 | 0.49 | 0.452 | 0.502 | 0.426 | 0.983 | 0.456 | 0.784 |
| NKEAICSGFIR [SMCHD1_Y283_Y283C_YF] | 0.693 | 0.448 | 0.398 | 0.496 | 0.53 | 0.467 | 0.952 | 0.39 | 0.501 | 0.802 | 0.455 | 0.741 | 0.451 | 0.827 | 0.664 | 0.5 |
| NKHTTYTMEHI [ACTN1_Y708_N707T] | 0.527 | 0.394 | 0.4 | 0.395 | 0.445 | 0.397 | 0.575 | 0.419 | 0.451 | 0.447 | 0.434 | 0.514 | 0.45 | 0.865 | 0.787 | 0.565 |
| NKKFHYRELPV [ERN2_Y860_H858Y_YF] | 0.459 | 0.362 | 0.351 | 0.368 | 0.45 | 0.374 | 0.508 | 0.419 | 0.332 | 0.372 | 0.306 | 0.407 | 0.266 | 0.877 | 1.06 | 0.678 |
| NKVKFYIPFMN [NCR1_Y84_D87Y_YF] | 0.897 | 0.551 | 0.528 | 0.431 | 0.519 | 0.507 | 1.02 | 0.437 | 0.436 | 0.824 | 0.482 | 0.699 | 0.413 | 1.64 | 1.22 | 1.57 |
| NKVKFYIPYMN [NCR1_Y84_D87Y] | 0.919 | 0.599 | 0.496 | 0.483 | 0.655 | 0.469 | 1.06 | 0.394 | 0.431 | 0.893 | 0.473 | 0.609 | 0.495 | 1.74 | 1.65 | 1.51 |
| NLGQQYNSPQE [UMPS_Y432] | 0.895 | 0.563 | 0.579 | 0.614 | 0.675 | 0.498 | 0.974 | 0.495 | 0.502 | 0.78 | 0.413 | 0.634 | 0.374 | 0.814 | 0.602 | 0.573 |
| NLNGKCNKPRA [ANGPTL3_Y417_Y417C] | 0.596 | 0.322 | 0.41 | 0.39 | 0.446 | 0.64 | 0.558 | 0.422 | 0.347 | 0.435 | 0.44 | 0.388 | 0.393 | 1.23 | 1.24 | 0.496 |
| NLPGGYSGSVK [MCPH1_Y606] | 0.595 | 0.407 | 0.455 | 0.374 | 0.425 | 0.375 | 0.652 | 0.484 | 0.447 | 0.618 | 0.371 | 0.747 | 0.46 | 0.72 | 0.766 | 0.448 |
| NMSRIYSTTKV [ACE_Y151_A154T] | 0.441 | 0.296 | 0.302 | 0.341 | 0.36 | 0.319 | 0.443 | 0.425 | 0.382 | 0.421 | 0.366 | 0.583 | 0.431 | 0.972 | 1.06 | 0.396 |
| NPIGLYSAEIL [LDB3_Y202_T206I] | 0.751 | 3 | 2.6 | 0.419 | 0.562 | 3.44 | 0.879 | 0.839 | 1.04 | 0.876 | 6.37 | 0.568 | 1.11 | 0.635 | 0.852 | 0.415 |
